Data on four substances can be found in publication PMC9890229.

Series [1] deals with Hfq (Pseudomonas aeruginosa) (UniProt Q9HUM0). Put plainly: EMSA. The conditions noted are these: EMSA: 20 mM Tris-HCl pH 8.0, 40 mM NaCl, 10 mM KCl, 1 mM MgCl2; 200 nM RNA; 15 min at 37 C; 4% PAA gel in 1x TBE at 4 C, SYBR gold. Background: In EMSA bound probe runs differently from free probe, usually more slowly.
The target in series [2] is Crc R90E,Y91F (Flag-tagged, from pME4510crc(R90E,Y91F)Flag) (Pseudomonas aeruginosa) (UniProt Q51380).
Series [3] has as its target Pseudomonas aeruginosa Hfq (Pseudomonas aeruginosa) (UniProt Q9HUM0).

“GGAACGCAAACGUUUGCGUCUGGAUAAUCUCCUGGAAAAGCCUCAAUACAACGAUAAGAAAAGCUGGAGGAUACACCAUGAAGCGGGUCGCUUCCCGGCGCCUGUUGGCU [rbsB110]”: in series [1], the binding entry is on record as “binds”.

On to “GGCUGAGGAGGCUUUACGACGGGCCCCGGGGCGCAUGCCGACGACGCGGCGGCCCGACAAUAAAAACAAAUCAUGGAGUAAGAGAAUGAUCAGAAUGGCGCUCAAGCCACUGGUAGCG [estA118]”, for which, in series [1], the binding result is listed as “binds”. Still for that read-out and setting: under “GGGCCUUUUUUCGUCCCGAAAAAAUAACAACAAGAGGUGAUAUCCAUGCGUCACGGCGAUAUUUCCAGCAGCAACGACACCGUCGGAGUGGCGGUGGUCAACUAC [amiE105]” stands “binds”. “Crc R90E,Y91F (Flag-tagged, from pME4510crc(R90E,Y91F)Flag) (from UniProt Q51380 1-259) (natural protein)” had a translational repression of the rbsB+13::lacZ reporter gene (β-galactosidase activity) in P. aeruginosa PAO1Δcrc in series [2] of 2 fold. In series [3], the de-repression of translation of the amiE+60::lacZ reporter gene (β-galactosidase activity) in P. aeruginosa PAO1Δcrc was determined as 7 fold and the de-repression of translation of the estA+18::lacZ reporter gene (β-galactosidase activity) in P. aeruginosa PAO1Δcrc was 2 fold.
